One block for each substance: values may come before it.
Experiments:
[1] = molecular target: H3(1-15)unmodified-FAM peptide (C-terminally fluorescein-labelled); experiment: fluorescence polarisation; FAM-labelled H3(1-15) peptide, recombinant protein titrated; RT; as described (ref. 28)
[2] = molecular target: H3(1-15)K9me3-FAM peptide (C-terminally fluorescein-labelled); experiment: as above
[3] = molecular target: murine UHRF1 splicing variant 2 (mUHRF1 V2), full-length, wild type (mouse); experiment: MST; 50 nM His-tag-labelled (RED-tris-NTA) UHRF1 protein, H3 peptide titrated; 20 mM HEPES-NaOH pH 7.9, 150 mM NaCl, 0.05% Tween-20; room temperature; Monolith NT.115
[4] = molecular target: mUHRF1 V1 R-S* (R298A/N299A/T300A/G301A/K302A/S303A), full-length (mouse) (UniProt Q8VDF2); experiment: as above
[5] = molecular target: mUHRF1 V1 P-patch/R* (P293A/P294A/P295A/L297A/R298A), full-length (mouse) (UniProt Q8VDF2); experiment: as above
[6] = molecular target: murine UHRF1 splicing variant 1 (mUHRF1 V1), full-length, wild type (mouse) (UniProt Q8VDF2); experiment: as above
[7] = molecular target: mUHRF1 V1 R298* (R298A), full-length (mouse) (UniProt Q8VDF2); experiment: as above
[8] = molecular target: human UHRF1 (hUHRF1), full-length, wild type (human) (UniProt Q96T88); experiment: as above
[9] = molecular target: H3(1–15)unmodified-FAM peptide; experiment: fluorescence polarisation; FAM-labelled H3(1–15) peptide, recombinant protein titrated; room temperature; as described in ref. 28
[10] = molecular target: H3(1–15)K9me3-FAM peptide; experiment: as above
[11] = molecular target: FAM-H3(1–15)K9me3 peptide; experiment: as above
[12] = molecular target: recombinant mUHRF1 V1 (mouse) (UniProt Q8VDF2); experiment: MST; 50 nM 6× His-tagged protein labelled with RED-tris-NTA dye, peptide titrated; 20 mM HEPES–NaOH pH 7.9, 150 mM NaCl, 0.05% Tween-20; room temperature; also with 100-fold molar excess of 16:0 PI5P (Figure 3D)
[13] = molecular target: recombinant hUHRF1 (human) (UniProt Q96T88); experiment: as above
[14] = molecular target: FAM-H3(1-15)K9me3 peptide (N-terminally fluorescein-labelled); experiment: fluorescence polarisation; FAM-labelled H3(1-15) peptide, recombinant protein titrated; RT; as described (ref. 28)

Sequence of human UHRF1 (hUHRF1), full-length, wild type (human) (Q96T88 whole entry): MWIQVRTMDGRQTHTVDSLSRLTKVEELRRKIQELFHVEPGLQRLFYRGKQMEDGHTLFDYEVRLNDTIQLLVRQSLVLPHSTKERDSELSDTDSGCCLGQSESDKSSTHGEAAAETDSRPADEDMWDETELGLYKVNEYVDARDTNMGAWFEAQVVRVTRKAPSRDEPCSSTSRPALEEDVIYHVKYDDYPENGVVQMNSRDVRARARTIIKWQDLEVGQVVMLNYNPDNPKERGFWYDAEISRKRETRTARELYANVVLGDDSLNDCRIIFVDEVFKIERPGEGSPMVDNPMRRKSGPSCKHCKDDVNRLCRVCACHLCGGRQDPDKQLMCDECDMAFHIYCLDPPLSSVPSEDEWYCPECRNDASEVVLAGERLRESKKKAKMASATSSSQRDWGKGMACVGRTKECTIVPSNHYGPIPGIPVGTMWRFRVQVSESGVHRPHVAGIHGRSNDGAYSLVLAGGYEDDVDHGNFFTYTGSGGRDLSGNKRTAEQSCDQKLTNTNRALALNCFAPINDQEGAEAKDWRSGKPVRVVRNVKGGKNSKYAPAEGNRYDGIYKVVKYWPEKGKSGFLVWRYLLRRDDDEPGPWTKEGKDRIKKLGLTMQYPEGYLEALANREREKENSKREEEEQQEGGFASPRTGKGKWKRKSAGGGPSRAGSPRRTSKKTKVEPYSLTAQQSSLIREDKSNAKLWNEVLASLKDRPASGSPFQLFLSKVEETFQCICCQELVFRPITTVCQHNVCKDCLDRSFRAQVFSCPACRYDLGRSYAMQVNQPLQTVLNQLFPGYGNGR
Sequence of murine UHRF1 splicing variant 1 (mUHRF1 V1), full-length, wild type (mouse) (Q8VDF2 whole entry, stated change not applied): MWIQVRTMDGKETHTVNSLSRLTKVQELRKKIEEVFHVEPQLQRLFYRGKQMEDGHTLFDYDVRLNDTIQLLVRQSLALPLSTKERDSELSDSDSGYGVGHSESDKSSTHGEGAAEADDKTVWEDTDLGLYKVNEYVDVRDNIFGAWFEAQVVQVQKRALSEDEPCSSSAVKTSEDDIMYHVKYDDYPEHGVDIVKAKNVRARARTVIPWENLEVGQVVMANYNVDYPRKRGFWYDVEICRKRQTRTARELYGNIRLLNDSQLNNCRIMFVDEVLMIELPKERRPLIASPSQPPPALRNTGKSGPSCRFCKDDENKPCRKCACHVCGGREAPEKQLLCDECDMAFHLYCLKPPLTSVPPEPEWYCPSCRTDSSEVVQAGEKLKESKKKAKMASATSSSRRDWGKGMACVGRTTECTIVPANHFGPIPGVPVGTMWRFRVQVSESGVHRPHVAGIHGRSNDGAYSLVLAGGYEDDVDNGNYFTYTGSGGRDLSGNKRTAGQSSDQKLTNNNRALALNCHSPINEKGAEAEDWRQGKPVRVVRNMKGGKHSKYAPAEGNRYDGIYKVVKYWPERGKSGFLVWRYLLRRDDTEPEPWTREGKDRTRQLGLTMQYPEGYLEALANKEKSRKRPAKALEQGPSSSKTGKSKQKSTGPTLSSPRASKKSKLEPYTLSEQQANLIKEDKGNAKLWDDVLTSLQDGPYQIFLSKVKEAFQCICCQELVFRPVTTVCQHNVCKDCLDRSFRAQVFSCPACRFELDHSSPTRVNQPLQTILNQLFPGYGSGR
Sequence of mUHRF1 V1 P-patch/R* (P293A/P294A/P295A/L297A/R298A), full-length (mouse) (Q8VDF2 whole entry P293A/P294A/P295A/L297A/R298A): as the sequence (Q8VDF2 whole entry, stated change not applied) above, with P293A, P294A, P295A, L297A, R298A counted along it
Sequence of mUHRF1 V1 R-S* (R298A/N299A/T300A/G301A/K302A/S303A), full-length (mouse) (Q8VDF2 whole entry R298A/N299A/T300A/G301A/K302A/S303A): as the sequence (Q8VDF2 whole entry, stated change not applied) above, with R298A, N299A, T300A, G301A, K302A, S303A counted along it
Sequence of mUHRF1 V1 R298* (R298A), full-length (mouse) (Q8VDF2 whole entry R298A): as the sequence (Q8VDF2 whole entry, stated change not applied) above, with R298A counted along it
Sequence of recombinant hUHRF1 (human) (Q96T88 whole entry): as the sequence (Q96T88 whole entry) above
Sequence of recombinant mUHRF1 V1 (mouse) (Q8VDF2 whole entry): as the sequence (Q8VDF2 whole entry, stated change not applied) above

Kd [1]: 2.4 µM | Kd [2]: 2.6 µM
Substance: hTTD-PHD module of human UHRF1, wild type (from UniProt Q96T88 1-793) (domain or fragment)

Kd [3]: 5.8 µM | Kd [4]: 5.1 µM | Kd [5]: 4.1 µM | Kd [6]: 5.3 µM | Kd [7]: 4.6 µM | Kd [8]: 2500 nM
Substance: histone H3 N-terminal tail peptide, unmodified (MST)

Kd [1]: 19.5 µM | Kd [2]: 21.4 µM
Substance: mTTD-PHD V1 TTD* (Y184A/Y187A, aromatic cage mutant) (from UniProt Q8VDF2-1 122-380) (domain or fragment)

Kd [9]: 14.3 µM | Kd [10]: 4.9 µM | Kd [11]: > 300 µM
Substance: mTTD-PHD V1 (domain or fragment)

Kd [1]: 10.5 µM | Kd [2]: 14.4 µM
Substance: mTTD-PHD V2 module (mUHRF1 V2 122-372) (domain or fragment)

fold reduction of binding against the H3K9me3 peptide [12]: 20 fold | fold weaker affinity against the H3K9me3 peptide [13]: 10 fold
Substance: H3R2me2sK9me3 peptide (titrated in MST)

Kd [14]: 3.4 µM | Kd [2]: 2.7 µM
Substance: isolated tandem tudor domain of murine UHRF1 (mTTD) (from UniProt Q8VDF2 1-782) (domain or fragment)

Kd [1]: 14.8 µM | Kd [14]: > 50 µM | Kd [2]: 19.8 µM
Substance: murine UHRF1 splicing variant 2 (mUHRF1 V2), full-length, wild type (natural protein)

Kd [1]: 12.7 µM | Kd [2]: 6.4 µM
Substance: murine UHRF1 splicing variant 1 (mUHRF1 V1), full-length, wild type (from UniProt Q8VDF2 1-782) (natural protein)

Kd [3]: 14 µM | Kd [6]: 28 µM | Kd [8]: 16000 nM
Substance: histone H3 N-terminal tail peptide, R2 symmetrically dimethylated and K9 trimethylated (MST)

Kd [11]: 12.3 µM
Substance: mTTD-PHD V2 (domain or fragment)

Kd [14]: 6.3 µM | Kd [2]: 4.9 µM
Substance: isolated tandem tudor domain of human UHRF1 (hTTD) (from UniProt Q96T88 1-793) (domain or fragment)

Kd [3]: 4.5 µM | Kd [4]: 6.2 µM | Kd [5]: 6.3 µM | Kd [6]: 1.4 µM | Kd [7]: 6.7 µM | Kd [8]: 1500 nM
Substance: histone H3 N-terminal tail peptide, K9 trimethylated (MST)

Kd [1]: 15 µM | Kd [2]: 7.7 µM
Substance: human UHRF1 (hUHRF1), full-length, wild type (from UniProt Q96T88-1 1-793) (natural protein)

From article PMC7430637
